Reference: article PMC314469, “Protein Interaction Networks by Proteome Peptide Scanning” (PLoS Biology, 2004)

T1: Boi1 SH3 (BOI1_YEAST), P38041
T1 chain: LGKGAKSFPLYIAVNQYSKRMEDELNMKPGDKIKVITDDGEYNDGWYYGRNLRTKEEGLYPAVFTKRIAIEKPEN

T2: Myo5 SH3 (MYO5_YEAST), Q04439
T2 chain: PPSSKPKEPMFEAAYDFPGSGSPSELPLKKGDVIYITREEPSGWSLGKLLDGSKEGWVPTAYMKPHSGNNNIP

T3: Yhr016c SH3 (YSC84_YEAST), P32793
T3 chain: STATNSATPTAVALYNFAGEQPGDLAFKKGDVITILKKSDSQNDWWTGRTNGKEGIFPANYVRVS

T4: Boi2 SH3 (BOI2_YEAST), P39969
T4 chain: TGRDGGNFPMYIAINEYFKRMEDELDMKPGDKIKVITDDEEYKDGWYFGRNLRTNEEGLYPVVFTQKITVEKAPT

T5: Rvs167 SH3 (RV167_YEAST), P39743
T5 chain: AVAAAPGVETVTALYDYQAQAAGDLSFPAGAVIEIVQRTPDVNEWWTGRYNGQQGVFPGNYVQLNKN

T6: Yfr024 SH3 (LSB3_YEAST), P43603
T6 chain: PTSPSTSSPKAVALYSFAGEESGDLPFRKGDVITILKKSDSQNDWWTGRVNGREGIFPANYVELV


Target: T1, Boi1 SH3 (BOI1_YEAST), P38041
Assay: SPOT array

| Binder | normalised SPOT signal, Boehringer light units (BLU); mean over the file's lines of this peptide |
| --- | --- |
| SKIPKSIPIIPYVL [YLR328W 26-39] | 151 |
| SGSGRRYPQTPSYY [YJL095W 698-711] | 593 |
| SKNWKLPPRLPHRA [YIR018W 25-38] | 7830 |
| SKIKRSRPPPPPMD [YDR239C 144-157] | 1250 |
| SIIPRIFPSTPGTI [YGL233W 770-783] | 176 |
| SEAKRKFPEAPEVP [YNL121C 455-468] | 66.4 |
| SETARKVPPIPTQI [YPL249C 247-260] | 73 |
| SEMHRAAPETPRSI [YKL050C 40-53] | 151 |
| SFIRKRAPTPPAPS [YBR108W 721-734] | 3210 |
| SFVTKYLPAAPVGS [YJR019C 24-37] | 27 |
| SILRKSSPEEPFMS [YNR023W 296-309] | 132 |
| SERRKALPKEPKKL [YIR010W 418-431] | 1170 |
| SENGRLTPGLPRSY [YPR111W 42-55] | 64.5 |
| SILNRSVPKRPTID [YAL017W 1333-1346] | 958 |

Target: T2, Myo5 SH3 (MYO5_YEAST), Q04439
Assay: SPOT array

| Binder | normalised SPOT signal, Boehringer light units (BLU); mean over the file's lines of this peptide |
| --- | --- |
| SKIPKSIPIIPYVL [YLR328W 26-39] | 243 |
| SGSGRRYPQTPSYY [YJL095W 698-711] | 436 |
| SKNWKLPPRLPHRA [YIR018W 25-38] | 5570 |
| SKIKRSRPPPPPMD [YDR239C 144-157] | 5410 |
| SIIPRIFPSTPGTI [YGL233W 770-783] | 369 |
| SEAKRKFPEAPEVP [YNL121C 455-468] | 393 |
| SETARKVPPIPTQI [YPL249C 247-260] | 420 |
| SEMHRAAPETPRSI [YKL050C 40-53] | 322 |
| SFIRKRAPTPPAPS [YBR108W 721-734] | 878 |
| SFVTKYLPAAPVGS [YJR019C 24-37] | 215 |
| SILRKSSPEEPFMS [YNR023W 296-309] | 144 |
| SERRKALPKEPKKL [YIR010W 418-431] | 200 |
| SENGRLTPGLPRSY [YPR111W 42-55] | 170 |
| SILNRSVPKRPTID [YAL017W 1333-1346] | 133 |

Target: T3, Yhr016c SH3 (YSC84_YEAST), P32793
Assay: SPOT array

| Binder | normalised SPOT signal, Boehringer light units (BLU); mean over the file's lines of this peptide |
| --- | --- |
| SKIPKSIPIIPYVL [YLR328W 26-39] | 33.4 |
| SGSGRRYPQTPSYY [YJL095W 698-711] | 226 |
| SKNWKLPPRLPHRA [YIR018W 25-38] | 21900 |
| SKIKRSRPPPPPMD [YDR239C 144-157] | 123 |
| SIIPRIFPSTPGTI [YGL233W 770-783] | 32.6 |
| SEAKRKFPEAPEVP [YNL121C 455-468] | 19.7 |
| SETARKVPPIPTQI [YPL249C 247-260] | 8100 |
| SEMHRAAPETPRSI [YKL050C 40-53] | 140 |
| SFIRKRAPTPPAPS [YBR108W 721-734] | 99.6 |
| SFVTKYLPAAPVGS [YJR019C 24-37] | 82.1 |
| SILRKSSPEEPFMS [YNR023W 296-309] | 22.1 |
| SERRKALPKEPKKL [YIR010W 418-431] | 49.3 |
| SENGRLTPGLPRSY [YPR111W 42-55] | 52.2 |
| SILNRSVPKRPTID [YAL017W 1333-1346] | 11900 |

Target: T4, Boi2 SH3 (BOI2_YEAST), P39969
Assay: SPOT array

| Binder | normalised SPOT signal, Boehringer light units (BLU); mean over the file's lines of this peptide |
| --- | --- |
| SKIPKSIPIIPYVL [YLR328W 26-39] | 25.9 |
| SGSGRRYPQTPSYY [YJL095W 698-711] | 41.3 |
| SKNWKLPPRLPHRA [YIR018W 25-38] | 29.8 |
| SKIKRSRPPPPPMD [YDR239C 144-157] | 35.1 |
| SIIPRIFPSTPGTI [YGL233W 770-783] | 22.2 |
| SEAKRKFPEAPEVP [YNL121C 455-468] | 7 |
| SETARKVPPIPTQI [YPL249C 247-260] | 34.5 |
| SEMHRAAPETPRSI [YKL050C 40-53] | 28.9 |
| SFIRKRAPTPPAPS [YBR108W 721-734] | 30.6 |
| SFVTKYLPAAPVGS [YJR019C 24-37] | 18.9 |
| SILRKSSPEEPFMS [YNR023W 296-309] | 43 |
| SERRKALPKEPKKL [YIR010W 418-431] | 43.6 |
| SENGRLTPGLPRSY [YPR111W 42-55] | 30.7 |
| SILNRSVPKRPTID [YAL017W 1333-1346] | 8.2 |

Target: T5, Rvs167 SH3 (RV167_YEAST), P39743
Assay: SPOT array

| Binder | normalised SPOT signal, Boehringer light units (BLU); mean over the file's lines of this peptide |
| --- | --- |
| SKIPKSIPIIPYVL [YLR328W 26-39] | 73.2 |
| SGSGRRYPQTPSYY [YJL095W 698-711] | 137 |
| SKNWKLPPRLPHRA [YIR018W 25-38] | 10200 |
| SKIKRSRPPPPPMD [YDR239C 144-157] | 185 |
| SIIPRIFPSTPGTI [YGL233W 770-783] | 369 |
| SEAKRKFPEAPEVP [YNL121C 455-468] | 116 |
| SETARKVPPIPTQI [YPL249C 247-260] | 21500 |
| SEMHRAAPETPRSI [YKL050C 40-53] | 207 |
| SFIRKRAPTPPAPS [YBR108W 721-734] | 250 |
| SFVTKYLPAAPVGS [YJR019C 24-37] | 100 |
| SILRKSSPEEPFMS [YNR023W 296-309] | 162 |
| SERRKALPKEPKKL [YIR010W 418-431] | 87.9 |
| SENGRLTPGLPRSY [YPR111W 42-55] | 235 |
| SILNRSVPKRPTID [YAL017W 1333-1346] | 28300 |

Target: T6, Yfr024 SH3 (LSB3_YEAST), P43603
Assay: SPOT array

| Binder | normalised SPOT signal, Boehringer light units (BLU); mean over the file's lines of this peptide |
| --- | --- |
| SKIPKSIPIIPYVL [YLR328W 26-39] | 42.7 |
| SGSGRRYPQTPSYY [YJL095W 698-711] | 638 |
| SKNWKLPPRLPHRA [YIR018W 25-38] | 39100 |
| SKIKRSRPPPPPMD [YDR239C 144-157] | 1450 |
| SIIPRIFPSTPGTI [YGL233W 770-783] | 448 |
| SEAKRKFPEAPEVP [YNL121C 455-468] | 18.5 |
| SETARKVPPIPTQI [YPL249C 247-260] | 19400 |
| SEMHRAAPETPRSI [YKL050C 40-53] | 904 |
| SFIRKRAPTPPAPS [YBR108W 721-734] | 1500 |
| SFVTKYLPAAPVGS [YJR019C 24-37] | 53.3 |
| SILRKSSPEEPFMS [YNR023W 296-309] | 327 |
| SERRKALPKEPKKL [YIR010W 418-431] | 649 |
| SENGRLTPGLPRSY [YPR111W 42-55] | 240 |
| SILNRSVPKRPTID [YAL017W 1333-1346] | 39200 |

These binders were tested against Sho1 SH3 (SHO1_YEAST), P40073 (assay: SPOT array).
Sequence of Sho1 SH3 (SHO1_YEAST), P40073 (P40073 295-366): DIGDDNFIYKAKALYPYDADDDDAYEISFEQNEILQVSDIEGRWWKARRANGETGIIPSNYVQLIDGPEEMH

| Binder | normalised SPOT signal, Boehringer light units (BLU); mean over the file's lines of this peptide |
| --- | --- |
| SKIPKSIPIIPYVL [YLR328W 26-39] | 76.7 |
| SGSGRRYPQTPSYY [YJL095W 698-711] | 168 |
| SKNWKLPPRLPHRA [YIR018W 25-38] | 4940 |
| SKIKRSRPPPPPMD [YDR239C 144-157] | 167 |
| SIIPRIFPSTPGTI [YGL233W 770-783] | 632 |
| SEAKRKFPEAPEVP [YNL121C 455-468] | 3.8 |
| SETARKVPPIPTQI [YPL249C 247-260] | 29.9 |
| SEMHRAAPETPRSI [YKL050C 40-53] | 95.5 |
| SFIRKRAPTPPAPS [YBR108W 721-734] | 208 |
| SFVTKYLPAAPVGS [YJR019C 24-37] | 2510 |
| SILRKSSPEEPFMS [YNR023W 296-309] | 54.4 |
| SERRKALPKEPKKL [YIR010W 418-431] | 29500 |
| SENGRLTPGLPRSY [YPR111W 42-55] | 35.8 |
| SILNRSVPKRPTID [YAL017W 1333-1346] | 96.4 |
